The results in this text go back to publication PMC7824956, “Structural and Biochemical Characterization of a Cold-Active PMGL3 Esterase with Unusual Oligomeric Structure” (Biomolecules, 2021).

One data set deals with T1, PMGL3 (unidentified, UniProt Z9N994FV33).
T1 construct: recombinant in E. coli, pET32a (stated for mutants), C-terminal hexahistidine tag; 302 residues modelled plus last 10 C-terminal residues invisible; mainly dimer in solution, tetramer in crystal; catalytic motif 147GESAG151, E243, H273
T1 sequence (Z9N994FV33 1-304): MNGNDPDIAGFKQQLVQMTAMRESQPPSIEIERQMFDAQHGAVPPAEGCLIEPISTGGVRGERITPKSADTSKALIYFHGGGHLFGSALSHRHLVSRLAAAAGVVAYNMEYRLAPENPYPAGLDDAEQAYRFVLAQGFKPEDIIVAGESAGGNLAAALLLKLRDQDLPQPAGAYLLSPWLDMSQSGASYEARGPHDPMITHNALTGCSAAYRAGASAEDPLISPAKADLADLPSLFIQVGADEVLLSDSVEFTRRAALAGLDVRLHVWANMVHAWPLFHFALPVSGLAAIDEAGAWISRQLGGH
The data set is described as follows: esterase activity, Michaelis-Menten nonlinear regression. Format: biochemical, permafrost metagenome. The conditions noted are these: 50 mM Tris-HCl pH 8.0, 100 mM NaCl, 30 °C; 0.2-2 mM substrate. The source says: (§1) esterase activity, Michaelis-Menten nonlinear regression on PMGL3

Data set [1] has as its system T2, CCCC(=O)Oc1ccc([N+](=O)[O-])cc1.
T2 construct: recombinant in E. coli, pET32a (stated for mutants), C-terminal hexahistidine tag; 302 residues modelled plus last 10 C-terminal residues invisible; mainly dimer in solution, tetramer in crystal; catalytic motif 147GESAG151, E243, H273
The data set is described as above. Type of data set: biochemical, permafrost metagenome. The conditions noted are these: 50 mM Tris-HCl pH 8.0, 100 mM NaCl, 30 °C, 0.2-2 mM substrate.
Description: as §1

For data set [2], the target named is PMGL3 D7N mutant (not stated (Siberian permafrost metagenomic DNA library)). Put plainly: SEC; samples after incubation for 30 min and/or 1 h at 40 °C; Superdex 200 10/300 GL, 0.4 mL/min, 100 mM Tris-HCl pH 8.0, 150 mM NaCl.
Data set [3] shares this target. Put plainly: SEC; freshly isolated samples; Superdex 200 10/300 GL, 0.4 mL/min, 100 mM Tris-HCl pH 8.0, 150 mM NaCl; column calibrated with protein standards. Background: SEC sorts molecules by how far they enter the pores of the column.
Data set [4] addresses PMGL3 E47Q mutant (not stated (Siberian permafrost metagenomic DNA library)). Put plainly: SEC; samples after incubation for 30 min and/or 1 h at 40 °C; Superdex 200 10/300 GL, 0.4 mL/min, 100 mM Tris-HCl pH 8.0, 150 mM NaCl.
Data set [5] has the same target. Put plainly: SEC; freshly isolated samples; Superdex 200 10/300 GL, 0.4 mL/min, 100 mM Tris-HCl pH 8.0, 150 mM NaCl; column calibrated with protein standards.
Data set [6] addresses PMGL3 K67A mutant (not stated (Siberian permafrost metagenomic DNA library)). Put plainly: SEC; samples after incubation for 30 min and/or 1 h at 40 °C; Superdex 200 10/300 GL, 0.4 mL/min, 100 mM Tris-HCl pH 8.0, 150 mM NaCl.
Data set [7] has the same target. Put plainly: SEC; freshly isolated samples; Superdex 200 10/300 GL, 0.4 mL/min, 100 mM Tris-HCl pH 8.0, 150 mM NaCl; column calibrated with protein standards.
Data set [8] has as its target cold-active esterase PMGL3, wild type (not stated (Siberian permafrost metagenomic DNA library)). The data set is described as follows: SEC; samples after incubation for 30 min and/or 1 h at 40 °C; Superdex 200 10/300 GL, 0.4 mL/min, 100 mM Tris-HCl pH 8.0, 150 mM NaCl.
The target is the same in data set [9]. The data set is described as follows: SEC; freshly isolated samples; Superdex 200 10/300 GL, 0.4 mL/min, 100 mM Tris-HCl pH 8.0, 150 mM NaCl; column calibrated with protein standards.
Data set [10] has the same target. The description is as above. This is another data set of the same source.
Data set [11] has the same target. Put plainly: crystal structure; X-ray, space group C2, two subunits in the asymmetric unit; crystals from 0.1 M sodium citrate pH 5.6, 20% isopropanol, 20% PEG 4000; oligomers from crystal contact analysis (PDBePISA).
Data set [12] shares this target. Described as above. This is another data set of the same source.
Data set [13] has the same target. Put plainly: SEC; sample after storage for 3 months at 4 °C; Superdex 200 10/300 GL, 0.4 mL/min, 100 mM Tris-HCl pH 8.0, 150 mM NaCl.

Where “and” joins values, the source holds several entries; their conditions need not be identical. Identical values can stand only once.

As for `CCCC(=O)Oc1ccc([N+](=O)[O-])cc1` [p-nitrophenyl butyrate], the Km at PMGL3 came out at 980 ± 90 µM.
Regarding PMGL3 (unidentified; D7N), in data set [1], the Michaelis-Menten constant (Km) worked out at 840 ± 70 µM, the Vmax came out at 157 µmol/min/mg and the kcat was 85 ± 3.15 s⁻¹.
For PMGL3 (unidentified; E47Q) the same measures were 1070 ± 90 µM, 117 µmol/min/mg and 63.7 ± 2.07 s⁻¹.
The matching figures for PMGL3 (unidentified; K67A): 940 ± 60 µM, 102 µmol/min/mg and 55.5 ± 1.4 s⁻¹.
For PMGL3 D7N mutant (enzyme), the stoichiometry N was 4 in data set [2]; 2 and 4 in data set [3].
For the molecule PMGL3 E47Q mutant (enzyme), the stoichiometry N in [4] is 4; in data set [5], 4 and 2.
On to PMGL3 K67A mutant (enzyme), for which the results for the stoichiometry N in [6] and in data set [7] were 4 and 2, respectively.
Regarding “cold-active esterase PMGL3, wild type (enzyme)”, the stoichiometry N in data set [8] is 4; in data set [9], 4; in [10], 2; in data set [11] it was 2; in data set [12], 4; in data set [13], 4.

As a reminder, the Km is the substrate concentration at which the rate is half of its maximum. The term Vmax denotes the top rate of the reaction or transport when substrate is in excess. A word on the kcat: it is the maximal rate divided by the concentration of active sites. As usually defined, the stoichiometry N is the number of molecules, sites or subunits per partner or assembly.
